Experiment: label from the status in PepcDB records

Sequence | protein production
MSGKNIVFLVLLLFIPVSLAAHYLEWGDLIVFITAGLAILPLAAWMGAATEEIAVVVGPTLGGLLNATFGNATELIIALVALNAGLVNVVKASITGSIIGNLLLVMGLSMLLGGLRHKEQTFQPIVARVNASAMNLAVIAILLPTAMNYTAQGIGEETLQYLSVAVAVVLILVYILTLIFSMKTHAYLYDVGVAEIETEENPHPKPNILLWSGVLLVCTLLVAVESELLVDALEVATSQLGLTALFTGVILVPIVGNAAEHATAVTVAMKDKMDLSVSVAVGSSMQIALFVAPVLVIAGWILGQPMDLDFQPFELVAVVVSVLIANSISSDGKSNWLEGTLLLAAYTVLGFAFYFHPDVGGLG | failed
FYTPSFITSYMCKESITPIVLDKFNAIYQWDCENLKALRGEIDRNFSNEKAKEYLNTLLTLRICDPAVGSGHFLVSALNEMVRVAYELGLIASLYRYDLKLENDEIIIHHTPTGEIFNYIKPDSENDPHHHIQKELFNLKKSIIENCLFGVDINPNSCEITKLRLWIELLKYSYYIFEKGKNTNALETLPNIDINIKCANSLISRFALKDKALLKSEKNKNLEYSIAEYKELVKIYKDPKILETLTHPIKDSNAVRKYAKERLYQELKQNPNKDFKKALNDRIEKIKKAFKLTLNPPPKELKFKKFLKEHLELYGKSILEEANYNGLELEALALEKQMANLFFDYRPYPKLDKSDKVVGLEHFNRYVLTSYKDLQDENERYANALEWRFEFPEVLDDEGDFSGFDCIIGNPPYIRQEHIKDLKPLLEKQYQDFYNSTADIYTYFFALAFHLLKEKGFSAFITSNKYTRAKYGAKLREWLLKKTTIVSYMELNALKVFESAAVDTSIIHFIKQTPSKESEFKYYEPTPNDKDDLKSTPHLLMKQNVLST | failed
ATITHQEKLLTVDTTAHPFLKALGGHEGTDIFPLFMDPYNGLMVMRASFAPGLTLPLHFHTGTVHMYTISGCWYYTEYPGQKQTAGCYLYEPGGSIHQFNTPRDNEGQTEVIFMLSGCNVNFTQDGTYLGLSDAGVIKNWVDRAIREQDNGLRYIAAAVPTYAA | not failed
MYTYKLQDEKPICSEKLKRLYDSVGWWPERKEIDIQKMLKNSIAIGVWKENELIGFARVVSDGVFRAYLEDVVVHESVRNKGIGEKMLTMLLEEISHINIVSLFCGEKLIKFYGQQQFQVTK | failed
MVIRGTNNDDNLIGTTGNDIIEGLGGNDRFEGGRGNDTLTGGTGNDVFNLEQQQDNDVVTDFVRGQDKIDLRNLNINDWATLQLLISNDGQDNALITTFFNGSQSQIKLLNINPNLLQASDFIFNTVNLNQTIDGTNFADQLFGGLGNDTLRGFNGNDVLFGEQGDDRFEGGRGNDTFYGGAGNDVFNLEQQQDNDVVTDFVRGQDKIDLRNLNINDWATLQLLISNDGQDNALITTFFNGSQSQIKLLNINPNLLQASDFIFNTVNLNQTIDGTNFADQLFGGLGNDTLRGFFGNDVLFGEQGDDRFEGGRGNDTFYGGAGNDVFNLEQLQDNDVVTDFVRGQDKIDLRNLNINDWATLQLLISNDGQNNALITTFFNGDQSQIKLLNINPNLLQASDFIFNTVNLNQTIDGTNSPDQLFGGLGNDTLRGFFGNDVLFGEQGDDRFEGGRGNDTFYGGAGNDVFNLEQLQDNDVVTDFVQGQDKIDIRNLNINDWATLQLLISNDGQDNALITTFFNGDQSQIKLLNINPNLLQASDFIFNTVNLNQTIDGTNSPDQLFGGLGNDTLRGFFGNDVLFGEQGDDRFEGGRGNDTFYGGAGNDVFNLEQLQDNDVVIDFVQGQDKIDIRSLNISDWATLQLLISNDGQNNALITTFFNGDQSQIKLNNINPNLLQASDFIFNTNTVNLNQTIDGTNSPDQLFGGLGNDTLRGFFGNDVLFGEQGDDRFEGGAGNDTFYGGTGNDIAVYLGTRSQYQVTSNGGVFTVTDTVANRDGVDTLREVEQIQFSDQTITIGNTSPTITLAVSPASVTEDGTPNLIYTFTRTGSTTNALTVNYSVAGTATLNTDYAQTGAASFTATTGTITFAVGASTAILTINPTADTTVESNETVALTLASGTGYTVGTTTAVTGTITNDDFPSITLAVSPASVTEDGTPNLIYTFTRTGSTTNALTINFGVAGTATLNTDYAQSGAASFTATTGTITFAAGASTAILTINPTADTTVESNETVALTLASGTGYTVGTTTAVTGTITNDDTLPTGITINLSGSQTIVEGNSSPQNVTYTVTLSQASSQIITVQYATANGTATAGSDYTSTTGTLTFNPGETSKVINIPILNDSVNEANETFTLRLTSPTNATLGTTNTVTTTITDTLSASVTTTLPTNVENLTLTGTAAINGTGNAGNNILTGNSGNNILSGGAGNDTYAFVANAALGTDTITETATGGIDTIDFNGSTATVRVNLGVTTSQTVNNNLKLILSANNVIENATGGTGNDRLTGNALNNILAGGNGNDQLQGLAGNDTLWGGLGDDILTGGIGQDKYLFQSSGVFSSSLGVDYISQFDVGQDQIVLSKATFNAVTNSAGQALTDFAVVSDDEFVNASSARIVYSQGSGSLFYNRDGNVLGTSTVFEFARLGNPDITLSSSDFSLIA | failed
MNNRVEILYCTQCRWLLRATWMTQELLTTFDQEIGELTLKPGTGGLFEVWVNGKRIWSRKEQGGFPEISELKRLVRDEVAPGRDLGHADQKGKTGASPAPAEP | failed
MIEEYLLRALLASLMVSTLLGLLSPLINVKGVAFLTHATFHALLFGAVLGMILGLIMGDLSLIFWISLLIAIIVVIGIAEMEIRGYSSDTAVGTMAGIIAGLTVLGFGILYKVMASRPYFALSESIVSYLTGEIFLITFDDLTLLVIGGFLVFTIMVIFYRDFLYLSFDPEGLESHGGNVRLYLMLLYFLVGAVGGLIVKTVGLITLQVLAVLPGAIALTISRGIREFVGISLGLTLAIQVSSTFLGYYFNIPPSGLATIFLGTIYGVLALRRKII | failed
MHFHLRNLRLHMETNGTPQSPAGDWRSYERMLLPPIQDLHKLGVYEEHGGYDRLRRVLEDDAFEPSDVTDEVKASGLTGRGGAGFPTGIKWTFMPEPDERPRFIGVNADESEPGTFKDRQVMEYNPHLMLEGILLAGYALHIDTAYVYIRGEYTDWIVHLKEQLENAYEAGYVGENIMGSDFTMDIVLHKGAGAYICGEETSLMESLEGKRGYPRYKPPFPAQSGIFGSPTTINNAETLAHVPLIVEQGGEAYSNIGAGDMPGPALYGMSGHVKNPGVYEFPTGMLLTDMIYDVCGGMARDKDLKAVVPGGSSVPPVPADQIDGISMNDESLGEVGSRTGTFCPLVLDEETDMVSFLRRVAHFYQDETCGQCTPCREGTSWLEKILARIDEGEGRMRDIDLLLELCDNMDGGRTICAFADGAVGPVRATVKRFREEFAAKCQASVHPVSTEVSAGAGSAVAATE | failed
MRDSFGDWAEKFLKSKEADGVSVSQLNSYKNYCRNHLSPLYMKSLSEILPADIQSIINETKLAKNTLKAIRNTASQIFRLAIENRAIDFNPADYVRIPKIALEHHHHHH | not failed
MTAASETFDVVVVGAGPAGGQCARRLAQAGRTVLLVDQLKTWTDHDFSSGGTPLETLDRFQLPDRVIGSRWSQLRVVTTREDHTWKSARSLGCVLDFAALRQFLAEETTTHGGSVRLGWQYRDRQQLTDGRWQIRFRDRLTSSDRWVTSRAVVDATGSARKVIYTAAEPRPDYLRGVGIEYLIEVPETVYQRFADALHFYLGHHWLPKGYSWIFPMQSGRLKVGACWFHGDHRFLKPDQPLRHYIDLLLTEQVQCPDYRLVDVHGAAIDYSGDRCDRHVQASILGIGDAVSAINFLGGEGIRHGLESADRAAQVLDAWLQGTVPDLSSYEQQIRRRFDRLWTLSLRLGMKKYLQDSDAKIDRIVRWCCALSTDDLMAILFDYRFQRLGRRLGRFFWLSVMTRLRLRWQRWRRPSHVA | failed
MAYVKERIYESMFIIAPNVPEEERENLVERVKKIIEERVKGKIDKVERMGMRKFAYEIKKFNEGDYTVIYFRCDGQNLQELENFYRVTPEIIRWQTFRRFDLEKKERKAQREKAAAEATESSEGGSED | not failed
MLLDGTPFARRRVTSLTSANRKGAARRTCPEAAGGPMASSAGLALCAQTLVVRGGSRFLAFSTTGSDDDCVFTYDCSTAEKKATPEDKGEDGQPADTGSDSILASTFSKSGRYFALTDDSKRLILFRTKPWQCLSARTIACQCVYFCVLDGIKCVLFRNSTRQVLSQACIEPAHCCGAVVSGSLCPLVIXAVSPDDQFVLTADRDEKIRVSWAAAPHSIESFCLGHTEFVSRILVVPSHPELLLSSSGDGTLRLWEYRSGRQLQCCDLAGLQEPGEQPGHKGLAASRIAFWGQESYVVLLCECVPVVFVFQLDASRQQLVFRQRLTFPHRVWDVVFEEARGLWVLQDCRDAPLVLWRPVGGEWQAAPDGAVSPRLCSHLRESWAMLEGSVGTDDSFRSLYKATFDNMTSYLKKKEERLQQQLKKKRQRSPFPGSPEQTKKACPGQSALSC | failed
